Experimental data published in PMC4702122, “Embelin binds to human neuroserpin and impairs its polymerisation” (Scientific Reports, 2016).
Where “and” joins values, the source holds several entries; their conditions need not be identical. Equal entries are not always repeated.

Experiments:
[1] = target: Neuroserpin (SERPINI1), wild type, uncleaved (human) (UniProt Q99574); assay: native MS; nano-ESI-MS of the SEC peak at 12.5 ml of Nat incubated overnight at 20 °C with EMB; 100 mM ammonium acetate pH 8, 10-20 μM protein, declustering potential 300 V
[2] = target: Neuroserpin (SERPINI1), wild type, uncleaved (human) (UniProt Q99574); assay: SEC-MALS; Nat incubated with EMB; peaks eluted at 13.7 and 12.5 ml; SEC-HPLC, 200 μL at 4 mg/mL
[3] = target: Neuroserpin (SERPINI1), wild type, uncleaved (human) (UniProt Q99574); assay: SEC; Nat (4 mg/ml) with 1.5 mM (saturated) EMB overnight at 4, 20, 37, 45, 55 °C; Superdex200 10/300 GL, 10 mM Tris HCl, 50 mM KCl, pH 8.0; fractions also by SDS-PAGE
[4] = target: T1, 2ctPA (active form of recombinant tPA) (Homo sapiens, UniProt P00750); assay: tPA hydrolytic activity assay; format: biochemical; settings: direct inhibition stated, data not shown; conditions not given
T1 construct: gene PLAT
T1 sequence (P00750 36-562): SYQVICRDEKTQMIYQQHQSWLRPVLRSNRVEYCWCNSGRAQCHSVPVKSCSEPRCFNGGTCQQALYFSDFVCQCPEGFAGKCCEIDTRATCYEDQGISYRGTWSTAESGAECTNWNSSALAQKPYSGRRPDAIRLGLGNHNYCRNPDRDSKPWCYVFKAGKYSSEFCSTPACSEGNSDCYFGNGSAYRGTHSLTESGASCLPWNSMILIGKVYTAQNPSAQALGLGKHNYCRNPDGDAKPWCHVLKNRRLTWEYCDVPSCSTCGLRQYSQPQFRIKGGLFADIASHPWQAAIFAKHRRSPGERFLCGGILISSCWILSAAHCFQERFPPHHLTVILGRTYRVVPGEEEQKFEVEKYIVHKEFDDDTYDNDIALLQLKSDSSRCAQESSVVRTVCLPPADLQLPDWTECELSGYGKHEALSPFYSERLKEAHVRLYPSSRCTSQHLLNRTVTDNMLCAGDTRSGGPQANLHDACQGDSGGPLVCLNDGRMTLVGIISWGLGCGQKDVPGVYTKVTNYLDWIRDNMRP

| Compound | stoichiometry N [1] | stoichiometry N [2] | stoichiometry N [3] | tPA hydrolytic activity assay [4] |
| --- | --- | --- | --- | --- |
| Neuroserpin (SERPINI1), wild type, uncleaved (from UniProt Q99574 17-410) (natural protein) | 3 and 4 and 2 | 2 | 2 to 8 | – |
| CCCCCCCCCCCC1=C(O)C(=O)C=C(O)C1=O [EMB, embelin] | – | – | – | Due to direct inhibitory effect of EMB on tPA |
